Experiments:
[1] = target: T1, immunogen peptide QTDRMNLQTLRGYYNQSEAS (positions 72-91 in the heavy chain α1 domain of the HLA-G molecule) (human); assay: ELISA on coated peptide, 2-fold dilution series
T1 construct: Synthetic peptide, coated on the ELISA plate at 2 µg/ml; also called antigen
T1 peptide: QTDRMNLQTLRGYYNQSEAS

HLA-G7 = target: T2, HLA-G7 (human, UniProt P17693-7 25-116); assay: immunoblot of standard proteins, antibody 1.0 µg/ml
T2 construct: also called HLA-G isoform standard protein HLA-G7; K562-HLA-G7

HLA-G2 = target: T3, HLA-G2 (human, UniProt P17693-2 25-246); assay: intracellular flow cytometry, FITC-labeled antibody on permeabilised K562-HLA-G2 cells
T3 construct: also called HLA-G isoform standard protein HLA-G2; K562-HLA-G2

HLA-G3 = target: T4, HLA-G3 (human, UniProt P17693-3 25-154); assay: intracellular flow cytometry, FITC-labeled antibody on permeabilised K562-HLA-G3 cells
T4 construct: also called HLA-G isoform standard protein HLA-G3; K562-HLA-G3

HLA-G4 = target: T5, HLA-G4 (human, UniProt P17693-4 25-246); assay: intracellular flow cytometry, FITC-labeled antibody on permeabilised K562-HLA-G4 cells
T5 construct: also called HLA-G isoform standard protein HLA-G4; K562-HLA-G4

HLA-G5 = target: T6, HLA-G5 (human, UniProt P17693-5 25-319); assay: intracellular flow cytometry, FITC-labeled antibody on permeabilised K562-HLA-G5 cells
T6 construct: also called HLA-G isoform standard protein HLA-G5; K562-HLA-G5

HLA-G6 = target: T7, HLA-G6 (human, UniProt P17693-6 25-227); assay: intracellular flow cytometry, FITC-labeled antibody on permeabilised K562-HLA-G6 cells
T7 construct: also called HLA-G isoform standard protein HLA-G6; K562-HLA-G6

[2] = target: T1, immunogen peptide QTDRMNLQTLRGYYNQSEAS …; assay: ELISA on coated peptide, logistic fit, affinity constant = 150000 x dilution factor / antibody concentration

B1: monoclonal antibody YWHG-1 against HLA-G molecule (antibody, V domains shown)
VH: QLQESGTVLVRPGASVKLSCKASGYIFTSYWINWVKQRPGQGLEWIGNIYPSDSYTNFNQKFEDKATLTVDTSSSTAYMQFSSPTSEDSAVYYCTRFGYPFDYWGQGTTLTVSS
VL: DIVITQDELSLTVSLGDQASISCRTSQSFVHSNGNIYLEWFLQKPGQSPKLLIYKVSSRFSGVPDRFSGSGSGTDFTLKISRVEAEDLGIYYCFQGSHVPPTFGGGTKLEIK
notes: FITC-labeled in the flow cytometry assay; also called hybridoma CCTCC NO: 202120
For B1, the “antibody dilution factor corresponding to 1/2 OD value” [1] was 25600 fold dilution (of 1.9 mg/mL antibody), the binding result (HLA-G7) was “binds” and the binding result (HLA-G2) was “binds”. B1: binds (HLA-G3); binds (HLA-G4); binds (HLA-G5). The binding result (HLA-G6) was “binds” and the Ka [2] was 2.02e+09 M⁻¹.

— patent publication US20250171543A1 (TAIZHOU ENZE MEDICAL CENTER GROUP, published 2025)
